The values that follow come from paper PMC7771966, “Quantitative glycoproteomics reveals cellular substrate selectivity of the ER protein quality control sensors UGGT1 and UGGT2” (eLife, 2020).

In this experiment the target is T1, glutathione S-transferase-calreticulin (GST-CRT) (UniProt P15253 18-418).
T1 construct: calreticulin from the plasmid pGEX-3X-GST-CRT (Baksh and Michalak, 1991; from M. Michalak); also called WT GST-CRT; GST-CRT-WT; source: E. coli BL21, purified (glutathione sepharose)
T1 sequence (looked up): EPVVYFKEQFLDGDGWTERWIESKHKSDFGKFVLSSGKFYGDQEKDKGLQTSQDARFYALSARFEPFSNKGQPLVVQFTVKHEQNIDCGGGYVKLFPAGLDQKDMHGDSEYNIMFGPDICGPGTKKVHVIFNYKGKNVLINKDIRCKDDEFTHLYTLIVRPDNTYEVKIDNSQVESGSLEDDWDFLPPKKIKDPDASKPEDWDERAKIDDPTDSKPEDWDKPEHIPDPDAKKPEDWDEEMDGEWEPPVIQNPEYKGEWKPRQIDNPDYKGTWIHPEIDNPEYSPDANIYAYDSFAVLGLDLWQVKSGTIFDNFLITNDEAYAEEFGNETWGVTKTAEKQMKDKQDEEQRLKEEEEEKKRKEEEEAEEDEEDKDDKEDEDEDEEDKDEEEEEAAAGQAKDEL
In words: pull-down; GST-CRT or GST-CRT-Y109A on glutathione beads, 16 h at 4 C with lysate (MNT: 20 mM MES, 100 mM NaCl, 30 mM Tris pH 7.5, 0.5% Triton X-100, protease inhibitors, 20 mM NEM) of ALG6-/-, ALG6/UGGT1-/- or ALG6/UGGT2-/- HEK293-EBNA1-6E cells treated with 500 uM DNJ for 14 h; immunoblot; percent reglucosylation = (GST-CRT lane minus Y109A lane) / total in whole cell lysate x 100. To be noted: one partner purified.

B1: β-hexosaminidase subunit β (HexB), immature ER-localized proHexB (enzyme, human (endogenous in HEK293-EBNA1-6E), UniProt P07686 43-556, looked up)
chain: ARAPSVSAKPGPALWPLPLLVKMTPNLLHLAPENFYISHSPNSTAGPSCTLLEEAFRRYHGYIFGFYKWHHEPAEFQAKTQVQQLLVSITLQSECDAFPNISSDESYTLLVKEPVAVLKANRVWGALRGLETFSQLVYQDSYGTFTINESTIIDSPRFSHRGILIDTSRHYLPVKIILKTLDAMAFNKFNVLHWHIVDDQSFPYQSITFPELSNKGSYSLSHVYTPNDVRMVIEYARLRGIRVLPEFDTPGHTLSWGKGQKDLLTPCYSRQNKLDSFGPINPTLNTTYSFLTTFFKEISEVFPDQFIHLGGDEVEFKCWESNPKIQDFMRQKGFGTDFKKLESFYIQKVLDIIATINKGSIVWQEVFDDKAKLAPGTIVEVWKDSAYPEELSRVTASGFPVILSAPWYLDLISYGQDWRKYYKVEPLDFGGTQKQKQLFIGGEACLWGEYVDATNLTPRLWPRASAVGERLWSSKDVRDMDDAYDRLTRHRCRMVERGIAAQPLYAGYCNHENM
modifications: monoglucosylated N-glycans (reglucosylated by the UGGTs; sites not stated)
notes: beta-hexosaminidase subunit beta, human, endogenous; the immature or ER-localized pro form, not yet processed into three chains; By immunoblot only proHexB was purified by GST-CRT; source: endogenous, lysate of CRISPR-edited HEK293-EBNA1-6E cells (ALG6-/- background), DNJ treated
Regarding B1, the “percent reglucosylation (bound by GST-CRT minus GST-CRT-Y109A, of the total in the lysate), ALG6/UGGT2-/- cells” value turned out to be 20%.

B2: ectonucleotide pyrophosphatase/phosphodiesterase family member 1 (ENPP1) (enzyme, human (endogenous in HEK293-EBNA1-6E), UniProt P22413 1-925, looked up)
chain: MERDGCAGGGSRGGEGGRAPREGPAGNGRDRGRSHAAEAPGDPQAAASLLAPMDVGEEPLEKAARARTAKDPNTYKVLSLVLSVCVLTTILGCIFGLKPSCAKEVKSCKGRCFERTFGNCRCDAACVELGNCCLDYQETCIEPEHIWTCNKFRCGEKRLTRSLCACSDDCKDKGDCCINYSSVCQGEKSWVEEPCESINEPQCPAGFETPPTLLFSLDGFRAEYLHTWGGLLPVISKLKKCGTYTKNMRPVYPTKTFPNHYSIVTGLYPESHGIIDNKMYDPKMNASFSLKSKEKFNPEWYKGEPIWVTAKYQGLKSGTFFWPGSDVEINGIFPDIYKMYNGSVPFEERILAVLQWLQLPKDERPHFYTLYLEEPDSSGHSYGPVSSEVIKALQRVDGMVGMLMDGLKELNLHRCLNLILISDHGMEQGSCKKYIYLNKYLGDVKNIKVIYGPAARLRPSDVPDKYYSFNYEGIARNLSCREPNQHFKPYLKHFLPKRLHFAKSDRIEPLTFYLDPQWQLALNPSERKYCGSGFHGSDNVFSNMQALFVGYGPGFKHGIEADTFENIEVYNLMCDLLNLTPAPNNGTHGSLNHLLKNPVYTPKHPKEVHPLVQCPFTRNPRDNLGCSCNPSILPIEDFQTQFNLTVAEEKIIKHETLPYGRPRVLQKENTICLLSQHQFMSGYSQDILMPLWTSYTVDRNDSFSTEDFSNCLYQDFRIPLSPVHKCSFYKNNTKVSYGFLSPPQLNKNSSGIYSEALLTTNIVPMYQSFQVIWRYFHDTLLRKYAEERNGVNVVSGPVFDFDYDGRCDSLENLRQKRRVIRNQEILIPTHFFIVLTSCKDTSQTPLHCENLDTLAFILPHRTDNSESCVHGKHDSSWVEELLMLHRARITDVEHITGLSFYQQRKEPVSDILKLKTHLPTFSQED
modifications: monoglucosylated N-glycans (reglucosylated by the UGGTs; sites not stated)
notes: ectonucleotide pyrophosphatase/phosphodiesterase family member 1, human, endogenous; source: endogenous, lysate of CRISPR-edited HEK293-EBNA1-6E cells (ALG6-/- background), DNJ treated
For B2, the “percent reglucosylation (bound by GST-CRT minus GST-CRT-Y109A, of the total in the lysate), ALG6/UGGT2-/- cells” value stood at 12%.
